In US20230002480A1:

Assays:
Test in all cases: cell-based or functional assay
[1] = biological target: HIV-1 Env of pseudovirus BJOX015000.11.5 (clade CRF01_AE (T/F)) (HIV-1)
[2] = biological target: HIV-1 Env of pseudovirus P0402_c2_11 (clade G) (HIV-1)
[3] = biological target: HIV-1 Env of pseudovirus R2184.c04 (clade CRF01_AE) (HIV-1)
[4] = biological target: HIV-1 Env of pseudovirus CNE5 (clade CRF01_AE) (HIV-1)
[5] = biological target: HIV-1 Env of pseudovirus Q769.d22 (clade A) (HIV-1)
[6] = biological target: HIV-1 Env of pseudovirus HIV-16845-2.22 (clade C) (HIV-1)
[7] = biological target: HIV-1 Env of pseudovirus MS208.A1 (clade A) (HIV-1)
[8] = biological target: HIV-1 Env of pseudovirus CNE20 (clade BC) (HIV-1)
[9] = biological target: HIV-1 Env of pseudovirus REJO4541.67 (clade B) (HIV-1)
[10] = biological target: HIV-1 Env of pseudovirus Q259.d2.17 (clade A) (HIV-1)
[11] = biological target: HIV-1 Env of pseudovirus WITO4160.33 (clade B) (HIV-1)
[12] = biological target: HIV-1 Env of pseudovirus 1054_07_TC4_1499 (clade B (T/F)) (HIV-1)
[13] = biological target: HIV-1 Env of pseudovirus CNE53 (clade BC) (HIV-1)
[14] = biological target: HIV-1 Env of pseudovirus WEAU_d15_410_787 (clade B (T/F)) (HIV-1)
[15] = biological target: HIV-1 Env of pseudovirus Du422.1 (clade C) (HIV-1)
[16] = biological target: HIV-1 Env of pseudovirus 62357_14_D3_4589 (clade B (T/F)) (HIV-1)
[17] = biological target: HIV-1 Env of pseudovirus 249M B10 (clade C (T/F)) (HIV-1)
[18] = biological target: HIV-1 Env of pseudovirus ZM247v1(Rev-) (clade C (T/F)) (HIV-1)
[19] = biological target: HIV-1 Env of pseudovirus Ce1176_A3 (clade C (T/F)) (HIV-1)
[20] = biological target: HIV-1 Env of pseudovirus THRO4156.18 (clade B) (HIV-1)
[21] = biological target: HIV-1 Env pseudovirus 191084 B7-19 (HIV-1)
[22] = biological target: HIV-1 Env pseudovirus P0402_c2_11 (HIV-1)
[23] = biological target: HIV-1 Env pseudovirus CNE8 (HIV-1)
[24] = biological target: HIV-1 Env pseudovirus 3016.v5.c45 (HIV-1)
[25] = biological target: HIV-1 Env pseudovirus 0260.v5.c36 (HIV-1)
[26] = biological target: HIV-1 Env pseudovirus BJOX015000.11.5 (HIV-1)
[27] = biological target: HIV-1 Env pseudovirus 191955_A11 (HIV-1)
[28] = biological target: HIV-1 Env pseudovirus 6480.v4.c25 (HIV-1)
[29] = biological target: HIV-1 Env pseudovirus T257-31 (HIV-1)
[30] = biological target: HIV-1 Env pseudovirus 89-F1_2_25 (HIV-1)
[31] = biological target: HIV-1 Env pseudovirus 235-47 (HIV-1)
[32] = biological target: HIV-1 Env pseudovirus C3347.c11 (HIV-1)

In the case of 10-1074 (antibody), the IC50, titer in TZM.bl cells [1] is reported as > 50 µg/mL, the IC80, titer in TZM.bl cells [1] is reported as > 50 µg/mL and the IC50, titer in TZM.bl cells [2] is reported as 0.012 µg/mL. The IC80, titer in TZM.bl cells [2] was 0.039 µg/mL, the IC50, titer in TZM.bl cells [3] was > 50 µg/mL and the IC80, titer in TZM.bl cells [3] was > 50 µg/mL. For the same substance, the IC50, titer in TZM.bl cells [4] was > 50 µg/mL and the IC80, titer in TZM.bl cells [4] was > 50 µg/mL.
With 10E8 (antibody) the IC50, titer in TZM.bl cells [1] was 0.051 µg/mL, the IC80, titer in TZM.bl cells [1] was 1.91 µg/mL and the IC50, titer in TZM.bl cells [2] was 0.172 µg/mL. For the same substance, the IC80, titer in TZM.bl cells [2] was 3.29 µg/mL, the IC50, titer in TZM.bl cells [3] was 0.272 µg/mL and the IC80, titer in TZM.bl cells [3] was 2.46 µg/mL. It also gave an IC50, titer in TZM.bl cells [4] of 1.41 µg/mL and an IC80, titer in TZM.bl cells [4] of 9.64 µg/mL.
N49P7.2 (antibody) was tested, and the IC50 [5] was 0.029 µg/mL, the IC80 [5] was 0.14 µg/mL and the MPI [5] was 100. The IC50 [6] was 3.91 µg/mL, the IC80 [6] was 18.2 µg/mL and the MPI [6] was 98. For the same substance, the IC50 [7] was 0.186 µg/mL, the IC80 [7] was 0.966 µg/mL and the MPI [7] was 100. The IC50 [8] was 0.119 µg/mL, the IC80 [8] was 0.574 µg/mL and the MPI [8] was 99. For the same substance, the IC50 [9] was 0.018 µg/mL, the IC80 [9] was 0.08 µg/mL and the MPI [9] was 100. For the same substance, the IC50 [10] was 38.5 µg/mL, the IC80 [10] was > 50 µg/mL and the MPI [10] was 54. It also gave an IC50 [11] of 0.051 µg/mL, an IC80 [11] of 0.215 µg/mL and an MPI [11] of 100. The IC50 [12] was 2.04 µg/mL, the IC80 [12] was 10.7 µg/mL and the MPI [12] was 99. It also gave an IC50 [13] of 0.1 µg/mL, an IC80 [13] of 0.277 µg/mL and an MPI [13] of 100. For the same substance, the IC50 [14] was 0.052 µg/mL, the IC80 [14] was 0.15 µg/mL and the MPI [14] was 100. For the same substance, the IC50 [15] was > 50 µg/mL, the IC80 [15] was > 50 µg/mL and the MPI [15] was 22. For the same substance, the IC50 [16] was 0.03 µg/mL, the IC80 [16] was 0.121 µg/mL and the MPI [16] was 100. For the same substance, the IC50 [17] was 0.095 µg/mL, the IC80 [17] was 0.349 µg/mL and the MPI [17] was 100. The IC50 [18] was 0.177 µg/mL, the IC80 [18] was 2.5 µg/mL and the MPI [18] was 96. For the same substance, the IC50 [19] was 0.332 µg/mL, the IC80 [19] was 1.08 µg/mL and the MPI [19] was 100. It also gave an IC50 [20] of 6.29 µg/mL, an IC80 [20] of 33.3 µg/mL and an MPI [20] of 94.
For N49P9 (antibody), the IC50 [21] was 0.042 µg/mL, the IC80 [21] was 0.129 µg/mL and the MPI [21] was 100. The IC50 [22] was 0.028 µg/mL, the IC80 [22] was 0.085 µg/mL and the MPI [22] was 100. For the same substance, the IC50 [23] was 0.056 µg/mL, the IC80 [23] was 0.26 µg/mL and the MPI [23] was 100. The IC50 [24] was 0.06 µg/mL, the IC80 [24] was 0.209 µg/mL and the MPI [24] was 100. For the same substance, the IC50 [25] was 0.466 µg/mL, the IC80 [25] was 1.85 µg/mL and the MPI [25] was 100. The IC50 [26] was 0.089 µg/mL, the IC80 [26] was 0.375 µg/mL and the MPI [26] was 100. For the same substance, the IC50 [27] was > 50 µg/mL, the IC80 [27] was > 50 µg/mL and the MPI [27] was 35. For the same substance, the IC50 [28] was 0.017 µg/mL, the IC80 [28] was 0.047 µg/mL and the MPI [28] was 100. For the same substance, the IC50 [29] was 0.216 µg/mL, the IC80 [29] was 0.821 µg/mL and the MPI [29] was 100. The IC50 [30] was > 50 µg/mL, the IC80 [30] was > 50 µg/mL and the MPI [30] was 23. For the same substance, the IC50 [31] was 0.072 µg/mL, the IC80 [31] was 0.271 µg/mL and the MPI [31] was 98. It also gave an IC50 [32] of 0.023 µg/mL, an IC80 [32] of 0.065 µg/mL and an MPI [32] of 100.
N49P9.1 (antibody) showed an IC50 [21] of 0.097 µg/mL, an IC80 [21] of 0.259 µg/mL and an MPI [21] of 100. It also gave an IC50 [22] of 0.06 µg/mL, an IC80 [22] of 0.163 µg/mL and an MPI [22] of 100. For the same substance, the IC50 [23] was 0.228 µg/mL, the IC80 [23] was 0.921 µg/mL and the MPI [23] was 100. It also gave an IC50 [24] of 0.076 µg/mL, an IC80 [24] of 0.223 µg/mL and an MPI [24] of 100. The IC50 [25] was 0.519 µg/mL, the IC80 [25] was 0.151 µg/mL and the MPI [25] was 100. It also gave an IC50 [26] of 0.068 µg/mL, an IC80 [26] of 0.478 µg/mL and an MPI [26] of 100. The IC50 [27] was > 50 µg/mL, the IC80 [27] was > 50 µg/mL and the MPI [27] was 26. It also gave an IC50 [28] of 0.03 µg/mL, an IC80 [28] of 0.082 µg/mL and an MPI [28] of 100. The IC50 [29] was 0.508 µg/mL, the IC80 [29] was 1.82 µg/mL and the MPI [29] was 100. The IC50 [30] was > 50 µg/mL, the IC80 [30] was > 50 µg/mL and the MPI [30] was 23. It also gave an IC50 [31] of 0.045 µg/mL, an IC80 [31] of 0.352 µg/mL and an MPI [31] of 98. It also gave an IC50 [32] of 0.029 µg/mL, an IC80 [32] of 0.083 µg/mL and an MPI [32] of 100.
